Reference: patent US20110236427

System: GST-NR2F6 fusion protein, full-length, wild-type
Sequence (chain, as listed by the source): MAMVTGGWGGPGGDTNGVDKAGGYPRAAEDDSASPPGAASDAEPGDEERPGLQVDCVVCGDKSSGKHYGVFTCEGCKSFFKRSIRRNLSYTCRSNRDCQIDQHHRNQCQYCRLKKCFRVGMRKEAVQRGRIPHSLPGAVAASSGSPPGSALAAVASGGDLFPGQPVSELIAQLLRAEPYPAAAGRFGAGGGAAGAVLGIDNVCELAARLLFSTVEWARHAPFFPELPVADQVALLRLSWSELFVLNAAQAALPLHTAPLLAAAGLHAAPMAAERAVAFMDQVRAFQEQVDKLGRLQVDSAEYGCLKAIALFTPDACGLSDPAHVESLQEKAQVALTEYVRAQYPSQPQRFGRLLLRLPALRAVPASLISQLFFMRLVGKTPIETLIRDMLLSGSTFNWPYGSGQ

B1: recombinant PKCzeta (enzyme, UniProt Q05513 1-592, looked up, species assumed)
Protein kinase C zeta type: MPSRTGPKMEGSGGRVRLKAHYGGDIFITSVDAATTFEELCEEVRDMCRLHQQHPLTLKWVDSEGDPCTVSSQMELEEAFRLARQCRDEGLIIHVFPSTPEQPGLPCPGEDKSIYRRGARRWRKLYRANGHLFQAKRFNRRAYCGQCSERIWGLARQGYRCINCKLLVHKRCHGLVPLTCRKHMDSVMPSQEPPVDDKNEDADLPSEETDGIAYISSSRKHDSIKDDSEDLKPVIDGMDGIKISQGLGLQDFDLIRVIGRGSYAKVLLVRLKKNDQIYAMKVVKKELVHDDEDIDWVQTEKHVFEQASSNPFLVGLHSCFQTTSRLFLVIEYVNGGDLMFHMQRQRKLPEEHARFYAAEICIALNFLHERGIIYRDLKLDNVLLDADGHIKLTDYGMCKEGLGPGDTTSTFCGTPNYIAPEILRGEEYGFSVDWWALGVLMFEMMAGRSPFDIITDNPDMNTEDYLFQVILEKPIRIPRFLSVKASHVLKGFLNKDPKERLGCRPQTGFSDIKSHAFFRSIDWDLLEKKQALPPFQPQITDDYGLDNFDTQFTSEPVQLTPDDEDAIKRIDQSEFEGFEYINPLLLSTEESV
phosphorylation (32P incorporation), in vitro protein kinase assay: (but not PKCzeta or PKA)
